# From publication PMC10248533 (The Journal of Biological Chemistry, 2023)
# B1: AtGet3dΔ1–57 from His8-SUMO-GSx2-AtGet3dΔ1–57 (native mass spectrometry sample) (natural protein, Arabidopsis thaliana, UniProt Q6DYE4 58-455, looked up)
# chain: TKFVTFLGKGGSGKTTAAVFAAQHYALAGLSTCLVIHNQDPSAEFLLGSKIGTSPTLINDNLSVIRLETTKMLLEPLKQLKQADARLNMTQGVLEGVVGEELGVLPGMDSIFSMLELERLVGFFRQATRKNHKGKPFDVIIYDGISTEETLRMIGLSSKTRLYAKYLRSLAEKTDLGRLTSPSIMRFVDESMNINSNKSPFDGMTSPAMWDTLERFLETGASAWRDPERFRSFLVMDPNNPMSVKAALRYWGCTVQAGSHVSGAFAISSSHLTSQIPKADFVPLPFASASVPFTITGLDWDKILLDQANSSIRELLSETVSHGTSLTQTVMFDTAKKLVTLFMPGFEKSEIKLYQYRGGSELLIEAGDQRRVIHLPSQIQGKVGGAKFVDRSLIVTMR
# notes: Get3d, Arabidopsis thaliana, UniProt Q6DYE4, without the first 57 amino acids (chloroplast transit peptide); Dialysed with Ulp1 after Ni-NTA; the GSx2 linker between SUMO and AtGet3d probably stays on the N-terminus after cleavage (surmised); Copurifies with small molecules of about 750 Da; source: E. coli NiCo21(DE3), purified (Ni-NTA, Ulp1 digestion, Superdex 200 SEC); not shown: His8, …
# Target: the molecule itself
# Assay: native MS; 50 μM protein exchanged into 200 mM ammonium acetate pH 7.4; nano electrospray, Q Exactive UHMR
protein,measurement,value
B1,stoichiometry N,2
